Assay results as given in paper PMC9282857, “Adaptor linked K63 di-ubiquitin activates Nedd4/Rsp5 E3 ligase” (eLife, 2022).

T1: Rsp5 HECT domain (444-809) (S. cerevisiae, UniProt P39940 444-809)
T1 construct: Rsp5 HECT domain, S. cerevisiae, residues 444-809; also called Rsp5 HECT protein; source: E. coli Rosetta (DE3), purified (TALON, Ulp1 cleavage, Superdex 200); not shown: His6, N-terminal, cleaved; SUMO, N-terminal, cleaved
T1 sequence (looked up): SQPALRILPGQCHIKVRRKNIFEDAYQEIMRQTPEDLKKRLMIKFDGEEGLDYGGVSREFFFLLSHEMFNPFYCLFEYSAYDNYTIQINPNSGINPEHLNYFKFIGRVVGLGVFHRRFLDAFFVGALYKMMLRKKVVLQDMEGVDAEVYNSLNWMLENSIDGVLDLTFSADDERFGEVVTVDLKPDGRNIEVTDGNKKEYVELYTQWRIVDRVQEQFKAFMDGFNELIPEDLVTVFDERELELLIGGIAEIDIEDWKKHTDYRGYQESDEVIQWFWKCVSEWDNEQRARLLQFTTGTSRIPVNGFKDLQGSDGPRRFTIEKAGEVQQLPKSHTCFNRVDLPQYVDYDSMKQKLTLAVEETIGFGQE

B1: mono-ubiquitin (WT) (natural protein)
chain: not shown
notes: ubiquitin, S. cerevisiae, amplified from SEY6210 genomic DNA; also called Ub-WT; mono-Ub-WT; source: E. coli Rosetta (DE3), non-tagged, purified (SP Sepharose, Superdex 200)
B2: K63-linked di-ubiquitin (complex)
chain 1: not shown
chain 2: not shown
modifications: distal ubiquitin; its C-terminus is joined by an isopeptide bond to K63 of the proximal ubiquitin | proximal ubiquitin; K63 carries the distal ubiquitin
notes: ubiquitin, S. cerevisiae; distal ubiquitin of the dimer; proximal ubiquitin of the dimer with an extra D77 after the C-terminal Gly-Gly; also called K63 di-Ub; K63-di-Ub; source: synthesised in vitro from purified Ub K63R and Ub D77 with human E1, Ubc13 and Mms2; purified (SP Sepharose, Superdex 75)
B3: K48-linked di-Ub (complex)
chain 1: not shown
chain 2: not shown
modifications: distal ubiquitin; its C-terminus is joined by an isopeptide bond to K48 of the proximal ubiquitin | proximal ubiquitin; K48 carries the distal ubiquitin
notes: ubiquitin, S. cerevisiae; distal ubiquitin of the dimer; proximal ubiquitin of the dimer with an extra D77 after the C-terminal Gly-Gly; also called K48 di-Ub; source: synthesised in vitro from purified Ub K48R and Ub D77 with human E1 and E2-25K; purified (SP Sepharose, Superdex 75)
B4: Art5 PY motifs containing region (520-586) (domain or fragment, S. cerevisiae, UniProt P53244 520-586, looked up)
chain: STTTAHLALPQPPPNYHESTNDHLMPALQPLGADSVVLTVPSYEQAQAQASASSYVTGSVPAYCDDD
notes: Art5, S. cerevisiae, residues 520-586 with the PY motifs; also called Art5 PY motif containing peptide; PY motifs of Art5; source: E. coli Rosetta (DE3), purified (Glutathione Sepharose, PreScission cleavage, Superdex 200)

Legend:
[1] = biological target: T1, Rsp5 HECT domain (444-809); assay: ITC; Affinity-ITC calorimeter, 25°C; 20 mM Tris-HCl pH 7.5, 150 mM NaCl, 1 mM DTT; independent binding model; details: both partners purified
[2] = biological target: T2, Rsp5 WW1-HECT domain (224-809) (S. cerevisiae, UniProt P39940 224-809); assay: as above; details: both partners purified
T2 construct: Rsp5 WW1-HECT, S. cerevisiae, residues 224-809; also called purified WW domains from Rsp5; source: E. coli Rosetta (DE3), purified (TALON, Ulp1 cleavage, Superdex 200); not shown: His6, N-terminal, cleaved; SUMO, N-terminal, cleaved

Kd [1] [µM] | Kd [2] [µM] | Binder
~201 | – | B1
33 | – | B2
145 | – | B3
– | 3.1 | B4
